The domain aggregation screens of Martell et al. (2025)

Experiment: soluble fraction after stress (log2 fold change); higher = more stays soluble; pooled small domains, quantitative proteomics
Details: stress: 50 degC
Outline: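 Quantitative proteomics served as the high-throughput read-out for pooled custom libraries of small protein domains. Each was stressed at 50°C. Aggregation propensity is expressed as the base-two log fold change in soluble protein after stress. A higher value means a larger share of the protein remains in solution.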

First: HMYPTPAAANRHFLDKWGHQEAYLGKVLNSRSRASEILNGKRPLSLSDLRTLRDNLGIPVDLLL
Second: HMDNNFIQSLYPIAIGISKNQLDPWDLINGWVEYYLKNKEKYINHPNLKAVAVLKMKGLLIDHFRKS
The “soluble fraction (log2)” value of the first is higher: -0.489 for the first, -3.57 for the second.

First: HMTMNYYDILSIKRDATLEEIQKAYKEKSFQFHPDFNKGISDDSMFRIIKEAYETLSDTEKRNQYDASLNK
Second: HMVEVPNVIGMTKPELTQQFVNLKLDGSGEGDVVVQQSPSEGSKVKEGSTVRVYFG
The “soluble fraction (log2)” value of the first is higher: 0.232 for the first, 0.0119 for the second.

First: HMEREKTYLMPDLIGRKAERVVPRLQASGFKVEDIRHVYYPGLEKGVIVRQSPPGGYPIQKRNLINLEVS
Second: HMKHFNDEELDGFAGLKSDDYNEEQVELFRNIFEELHPDEIIEWTESLRRRGIEIPSSLKDEVVMMIN
The “soluble fraction (log2)” value of the first is lower: -0.333 for the first, 0.173 for the second.

First: HMIIDTELMTRVMKFGFSQADASDLVAQHSDDLLRTAISRVEARAESKGMTPLETPAGYFRWTLQDLVRNP
Second: HMKVELSENEKIIYDLLSNQEVLLSEIKDKAELSNKAWDKSTKSLRKLGLVIVEKKDDNIYISKS
The “soluble fraction (log2)” value of the first is lower: -1.24 for the first, -0.362 for the second.

Compared with “HMYKSSRASKSEVNKFLKFIIQSLDKRGFLQPGHKRQSMIRNIENIFYRTNLSDQEIRILLGIFSTLNK”, “HMHDPLATLTPREHEVMSLMAEGRTNAAIAQALVIGTGAVEKNVTSIFQKLGLDDSGTDHRRVLAVLAWLQ” is lower in “soluble fraction (log2)” value: -0.62 for the first, -2.14 for the second.

First: HMDDNRSLSDLAQQVFKRENIQVSRDTLSLLVSRLGSDRAVSRQEIEKLALFAGSNGKLTEEDIHNALG
Second: HMGEKTLSEKVYDRLKELIMDGELERGTKITETSIAKMFDVSPTPVREAFRKLASDGLIEVASWKGVIVKG
The “soluble fraction (log2)” value of the first is higher: 0.192 for the first, -0.0886 for the second.

First: HMRDANYFINPIHEWQKRYEALRASFVDRLPAQAVAQRFGYTITYIHLLRHQFKSGKIDFSEPVPEG
Second: HMRMTPRQALDDLIREREETYAAVSRLLGRNTAYIQQYIKRGTPARLDQSDIAQLALHFDVPAKLLGGKE
The “soluble fraction (log2)” value of the first is lower: -4.61 for the first, -0.943 for the second.

First: HMDFMNSEIKKIVEDLKLTLQSLNYTKNEIKSILPVINKETDNLIKKEKYASFENLLRLAMNHLDNN
Second: HMIELTTDYKKRVVEALVSARENYSGSDSDFARKWSIDKTVYSRLKKGYQEGLLSVGKYIELGMELNVSSR
The “soluble fraction (log2)” value of the first is higher: -0.462 for the first, -1.34 for the second.

Going from “HMSSPEAAEVQRLLKDGQHVQALKIIDESLARNPKDPQMRFRRGVALSMLDRKNEALAVFQKLVED” to “HMTLHDLFPQAVEFVSEKEMISTAELQRKLMISYNSAAKIIDQLLHVDFIQKSESAGKYSVLIK”, the “soluble fraction (log2)” value falls from -0.043 to -2.31.

“HMELNELTSRELMVAEQVARGASNREISEALSISERTVKAHLSAAFEKLGVRDRVQLALAMNNIPT” and “HMGVGIEALAVEVDRIRQVLTGGGALSDIQLFSQLKALGEVKTALSSMTDPRARELEKRVAQLLEASLRT” are within 0.2 log units of each other in “soluble fraction (log2)” value: -0.0086 for the first, -0.0594 for the second.

Compared with “HMANPEFAGYINGKPYFGPTHQHRGVKMLGATHTRNPHPLVWDSIAESLANYDSRFRWSGGQIL”, “HMSNKYYETILDWFKSQIMSGELKEGDTIPSERELATRFGVSRVPVREALRILEYIGIVSNTADGMTVQKV” is lower in “soluble fraction (log2)” value: -0.429 for the first, -0.879 for the second.

“HMTDSDTQDIDVGELRVGHFVFLDLSWIRHPFPLSSFKIQSAEQIKTIRSLGLRRIRYSPGRSGP” and “HMPILRDEVYLSIKEAILTGELAPGERISIGRLLPQIGFSPTPIREALLKLEQEGFVSRLQRGGFIVSR” are within 0.2 log units of each other in “soluble fraction (log2)” value: -1.18 for the first, -0.991 for the second.

Going from “HMNLTSNDAYSRILNAIITSELRPGDTVTEIQLAQKFGFGRTPVREAIMRLENEGFIVSAERKKRVYIL” to “HMKHEFSEEWLDWIKSNIADGQNKNGLFKVLLNHGYAYDAVREVMQYEPTVPLDELVDPLRA”, the “soluble fraction (log2)” value rises from -2 to -0.139.

Going from “HMSETAEFIIQVNGKVRAKLQLPTDISKEEIQKLALADENVQKYLNGEPRKIIFPPNTRLVSIV” to “HMKSLLDQINGIGAIRKRALLNHFGSARAVESASLDEIKSVEGVEAKVAKKIYNFFHEYKNMLR”, the “soluble fraction (log2)” value falls from -0.0471 to -1.12.

Going from “HMKEEVEILGGKATIYTNDYGVWQFRLWLTTDNKYVRKSLRTKVKDYAITEGEKLYIQIRSDIEKGIKYY” to “HMNEDDQLLKVLLAEPLRLEELYNLDLKPQGPYNLQTWIMVHLTELERDGLIARFPDGRYGPAR”, the “soluble fraction (log2)” value falls from -1.13 to -1.36.

Compared with “HMEKIIFEISEEGKRLDLYIAERTELTRTRIQQLIKDGNINVNNKKSKPSYKVEKNDFIEMIIPDE”, “HMEDQLDSLKDIIYDYLENNELYYNDLQEFKKIIIENMEFIHPNLNHKLIDNNFFKLINFKLEYNF” is higher in “soluble fraction (log2)” value: -0.56 for the first, -0.0455 for the second.

Compared with “HMAPQQARAAKTRVKLLDAAATVVRRDGIQAMTLARVAEEAGVSKGGLLHHFGSKEELVTGMLEQ”, “HMTIDNPESQKIMDMVPFFFQSRNYDEAIEALTYVIEQEPQFSEAYNKRATFYFMMGDLENSMKDIEITLA” is lower in “soluble fraction (log2)” value: -0.152 for the first, -0.401 for the second.

Going from “HMVTIYQRIMLVLEDKQVSVNALSKLVDMSQTTLNTQLKGERTLSANVVAKVLVAYPDVSAEWLMRGVGTM” to “HMGASIQITVNNTPVMLKNKTHYTLVDVLDFYPFDLSKMGGTELYTAINGVKSGFTDPVHANDSIEIYWI”, the “soluble fraction (log2)” value falls from 0.362 to -0.148.

“HMKITADQEIETAINYFKKSIAEKGWKGVNPDEFKQMNDYLSETFGYSATIKFQKALDEQGLMVDE” and “HMRKDYTVLYSAVNAEEATEIVSKLQESGVAYQYKDNGDVLVDKKQVDKVRAQLAQEGYPKS” are within 0.2 log units of each other in “soluble fraction (log2)” value: 0.0602 for the first, 0.164 for the second.

First: HMKKTAAKVLGESEGKPVTVQSGRYGPYVQLGSIRATLPKDLEQDDVTLDRALELISAKAERAGK
Second: HMHANSDVEQLMQMGIQRLNFQRYSDALLIFNQIIENFPDYAEAWNKRATLHYLLGNLDKSIADIEQTLE
The “soluble fraction (log2)” value of the first is higher: 0.122 for the first, -2.54 for the second.

First: HMYQPLYEQIKRMLTQSLIDGEWKAGEMIPSEMELAARFKVSQGTVRKAIDELVSENILMRRQGKGTFVH
Second: HMTSVPGTVVTNANLRGGPGTNYPIVGKAPAGTTVNVVESTADRTWYYLDTGSWIAAFLVKLS
The “soluble fraction (log2)” value of the first is lower: -0.231 for the first, 0.152 for the second.

“HMTQGRVTGDGVNVRSQPNTDSAILTRVSTGKVVELISLKDNWYNVVVNGTKGYIRADYVSPYDG” and “HMALGRTGEVYLPIPAGRAGHGKISITLQGALREVDAVTAGEALPRGTSVRVVDVAGNGVLLVEK” are within 0.2 log units of each other in “soluble fraction (log2)” value: -0.0101 for the first, -0.059 for the second.

Going from “HMDPLASLTPREREVLSLMAQGLSNLAVAERLVVSAGAVEKHISSIFTKLDLAPSEHEHRRVLAVLRYVAG” to “HMLLSEPSVLKFNDDNSYEIVSGFLTEYKDKIVKIERRYKKATVKITVAGEEKEIKVSFVEDTE”, the “soluble fraction (log2)” value rises from -3.2 to -0.161.

“HMKDTNENLMKMLALLIHAAKIDENYSDEEKELIVNFAEMSSKENLNREQILSIIKSAEEYE” and “HMDLSQTVQAKALARVNVREGAGTHFKSLGKLKKGELLPVFRVGNSWASIWWKGRVAYVHTDYLRFESA” are within 0.2 log units of each other in “soluble fraction (log2)” value: -0.702 for the first, -0.847 for the second.

First: HMAVSVPDVMGLTYEEAYNKITAEGLLVNRLESYTGLVEKGRVISQLPVGGEPAAKGSTVNVNVSL
Second: HMTRYQHLAMLLEKRIAQGLYRNGERLPSVRSLSAEHGVSISTVQQAYYLLEQKQLIIPQSRSGYYVAPH
The “soluble fraction (log2)” value of the first is higher: 0.252 for the first, -4.42 for the second.

Going from “HMLTIQNYFNQVKNIDWEQVPAALSKGHQLVEGASQNNWSAYHSNANIQRVVEAYFQKLNDYLEKN” to “HMELDIGKKAIVIEKIDPEAGTGRVRIEGVDWGAKTADSSVIEKGETVVVKAKGAAFVTVAK”, the “soluble fraction (log2)” value rises from -0.191 to 0.18.

First: HMNSTGVYQRPDGFWEYRFTLSINGKKLPRRKSTDLMGNKLKTKREAIKAREEAIIALRTEKTI
Second: HMNVEKLREMYPEGTKIILQEMQGESRMAKGLKGTVTHVDDAGQIHMKWENGSSLVLNVEVDTFKKIE
The “soluble fraction (log2)” value of the first is lower: -0.994 for the first, 0.0915 for the second.

Compared with “HMNIGIVSLAAVPMRKEPSDRAEMVNQILFGETFDVLEEQEKWTLVQLHHDAYQGWIDRKQWDYASGIAD”, “HMDGNVPSVEGKPLSGAKYILETYGYKTGTVTEVNSEDVPAGIVISQNPARGTTLANGGSVNLQVSLG” is higher in “soluble fraction (log2)” value: -1.01 for the first, 0.321 for the second.

First: HMLAVPADFAEKLQSLRSQLASDDLDASDAFGRLQPFIKALYPAQLEALRKAVDDFDFVEATRLIDQLPQ
Second: HMYEVVPNMRGLTYNQATAALAAAGLKVELSDSIYDEHTQPGTVLDQSPRPNTKVKPNRVVYLTVNAF
The “soluble fraction (log2)” value of the first is higher: -0.232 for the first, -0.739 for the second.

“HMSVTIDAGGKVYLQESEIADDQLVPRLVAISNNGYDKPIYLRADKTVGYGRVAEVMSLLNAAGFTKLVLV” and “HMSEQVTMIDVEGKTETEAKKALEDLGLKVEITYESADAAAGTVIGQDVKAGSTVSEGSRVTLTVSGQ” are within 0.2 log units of each other in “soluble fraction (log2)” value: -0.0288 for the first, 0.0626 for the second.

“HMNREMLVHAIGQLKEKYASALELKYWHGFTEREIAAFLNISEKAANSRLVRGRVMLRKLLE” and “HMEPEYIGELEKRIKKLKTHTYSSIDRLMKSISKKYKITTQVLHDDFKNKHNEIPDEWVKQF” are within 0.2 log units of each other in “soluble fraction (log2)” value: 0.131 for the first, -0.0578 for the second.

First: HMKSYTYNPNYLSDYNAYRLGIPLEALERLQLHRSTGRYVNSLSDFQSVTGISDSLKHSLSSSLRFPN
Second: HMSLTGFYNLTFKQADRLSVIDEAGEEVYKQAIAMGSTTKTIDLSALNAGVYFIRIYNGEVIAQEKIVLN
The “soluble fraction (log2)” value of the first is higher: -0.876 for the first, -1.25 for the second.

Compared with “HMLISYRVDALANEAGLSVDTIRYYQKLGILDPPKRTGRHSEYSPDHLERLIEIRRLADAGLTLSQISEI”, “HMGTPSAEELAFSAQKGNAVMRIMEIREKYIENGGQISDEERNEIERLIAIYYPKASIFDYLPMMG” is higher in “soluble fraction (log2)” value: -2.46 for the first, -0.136 for the second.

Going from “HMNDELMEQIDEWHKAEKHQEIIDALEQIPEAERDFETTGFLARAYNNIEEYAKAADLLESVRE” to “HMPTMVAQINEIVQAKLPGSGLKDYTIRLVESQRDGVVVWVNGTRYLGVDEVAEPQVQALLKEAVAEWERS”, the “soluble fraction (log2)” value falls from 0.0873 to -0.132.

For “HMQENFYMILESEERRVLDVLVADQPESVATFLKLVSPFPNYKIILEHINEKALDFYEETVI”, the “soluble fraction (log2)” value was -0.303.
